Test results as given in the DeepSol protein solubility set.

assay: soluble on expression in E. coli; label from the status in PepcDB or PDB records

Row | Sequence | soluble on expression in E. coli
1 | MSLTDIHPPLLLIDTSTRVCSVAVAAAGTIISQRVSHVGNSHAANIGVFVQEVLTEAIGLGVKPSIVALSSGPGSYTGLRIGSSIAKGICFGLGIPLVSVPTLELIAEAARPLSQPDWLICPMIDARRMEVYTALFDSKGKALTDTLPLVIDNDSFSEELKKRNILFVGDGAEKCRPFLSHPNAHFSKNVIYPLALYMLHPALSRIETSSYEDVAYWEPFYLKEFVATVAKNKVIPRTQTTEGHHHHHH | not soluble
2 | MKKILFDVDGVFLSEERCFDVSALTVYELLMDKCYLGLHSHIDWETLTDNDIQDIRNRIFQKDKILNKLKSLGLNSNWDMLFIVFSIHLIDILKKLSHDEIEAFMYQDEPVELKLQNISTNLADCFNLNEQLPLQFLDNVKVGKNNIYAALEEFATTELHVSDATLFSLKGALWTLAQEVYQEWYLGSKLYEDVEKKIARTTFKTGYIYQEIILRPVDEVKVLLNDLKGAGFELGIATGRPYTETVVPFENLGLLPYFEADFIATASDVLEAENMYPQARPLGKPNPFSYIAALYGNNRDKYESYINKQDNIVNKDDVFIVGDSLADLLSAQKIGATFIGTLTGLKGKDAAGELEAHHADYVINHLGELRGVLDNLLEHHHHHH | soluble
3 | MGSDKIHHHHHHMLPLSAEEFARLVPILRQAGLSHVTHIHELAGGLSNHNYHIQTPTTQYALRLNAEAADRFCSREQELFYWRNLAKAKLAPELIWTSCDHRYYLSAFIESQDIASLLNASQIPDMLGDWADVRGALNWKNLAYQCSAAEFTLGEQRLQTWLQAHAENFECALHQACMPQSFAAQLTPLALLESQCPNRVHSLLLQLLQRLRLQSAGPYHISVTEQWQQYHQQLLAFAATDKGSAWQTRLDLLLGLQPQIHRWTTVLADCLVAAQFCHRDLNPHNLLLKDNQLYCIDFEYATASHPLCELAVVLATHRLTPVQRHILVRQYLADHPGVTSTAITAVPAAIDMYWVFALYWALLIAAQTDAERQQEYLAWFDSFWSLVSQDA | not soluble
4 | MPVTNMAELDAMIARVKKAQEEFATYSQEQVDKIFRAASLAANQARIPLAQQAVEESGMGIVEDKVIKNHFASEFIYNKYKDEQTCGILEEDDNLGTMTIAEPVGIICGIVPTTNPTSTAIFKSLISLKTRNGIIFSPHPRAKNSTNDAAKLVLDAAVAAGAPKDIIGWIDQPSVELSNALMKHDDIALILATGGPGMVKAAYSSGKPAIGVGAGNVPVVIDETADIKRAVASVLMSKTFDNGVVCASEQAVIVVDEVYDEVKERFASHKAHVLSKTDADKVRKVLLIDGALNAKIVGQPATAIAEMAGVKVPADTKVLIGEGLGKVSYDDAFAHEKLSPTLGMFRADNFEDAVAQAVTMVEIGGIGHTSGLYTNQDVNADRIRYFGDKMKTARILINIPTTHGGIGDLYNFNVAPSLTLGCGSWGGNSISENVGPKHLINKKTVAKRAENM | soluble
5 | KDWTQYVNPLMGSQSTFELSTGNTYPAIARPWGMNFWTPQTGKMGDGWQYTYTANKIRGFKQTHQPSPWINDYGQFSIMPIVGQPVFDEEKRASWFAHKGEVATPYYYKVYLAEHDIVTEMTPTERAVLFRFTFPENDHSYVVVDAFDKGSYIKIIPEENKIIGYTTRNSGGVPENFKNYFIIEFDKPFTYKATVENGNLQENVAEQTTDHAGAIIGFKTRKGEQVNARIASSFISFEQAAANMNELGKDNIEQLAQKGKDAWNQVLGKIEVEGGNLDQYRTFYSCLYRSLLFPRKFYELDANGQPIHYSPYNGQVLPGYMFTDTGFWDTFRCLFPLLNLMYPSVNKEMQEGLINTYLESGFFPEWASPGHRGCMVGNNSASILVDAYMKGVKVDDIKTLYEGLIHGTENVHPEVSSTGRLGYEYYNKLGYVPYDVKINENAARTLEYAYDDWCIYRLAKELKRPKKEISLFAKRAMNYKNLFDKESKLMRGRNEDGTFQSPFSPLKWGDAFTEGNSWHYTWSVFHDPQGLIDLMGGKEMFVTMMDSVFAVPPIFDDSYYGQVIHEIREMTVMNMGNYAHGNQPIQHMIYLYDYAGQPWKAQYWLRQVMDRMYTPGPDGYCGDEDNGQTSAWYVFSALGFYPVCPGTDEYVMGTPLFKKATLHFENGNSLVIDAPNNSTENFYIDSMSFNGADHTKNYLRHEDLFKGGTIKVDMSNRPNLNRGTKEEDMPYSFSKELEHHHHHH | soluble
6 | MGSDKIHHHHHHMRRLFAIGEALIDFIPNVTHSKLKDVEQFSRQVGGAPCNVAATVSKLGGKSEMITQLGNDAFGDIIVETIEQLGVGTQYIKRTNKANTALAFVSLQDDGQRDFSFYRKPSADMLYQPENIDDIQVFQDDILHFCSVDLIESDMKYAHEKMIEKFESVDGTIVFDPNVRLPLWEDKLECQRTINAFIPKAHIVKISDEELLFITGKRNEDEAIQSLFRGRVNVVIYTQGAQGATIYTKDDYRIHHEGYQVQAIDTTGAGDAFIGAIIYCILESRYSECKDLFKEKGKDILAFSNRVAALTTTKHGAIESLPTKEDIKDYN | not soluble
